We go through 14 sequences from the DeepSol protein solubility set.

The data set can be described thus: soluble on expression in E. coli; label from the status in PepcDB or PDB records.
For “MNHKVHHHHHHIDGRHHHHHHHIDGRHMQVSVETTQGLGRRVTITIAADSIETAVKSELVNVAKKVRIDGFRKGKVPMNIVAQRYGASVRQDVLGDLMSRNFIDAIIKEKINPAGAPTYVPGEYKLGEDFTYSVEFEVYPEVELQGLEAIEVEKPIVEVTDADVDGMLDTLRKQQATWKEKDGAVEAEDRVTIDFTGSVDGEEFEGGKASDFVLAMGQGRMIPGFEDGIKGHKAGEEFTIDVTFPEEYHAENLKGKAAKFAINLKKVEERELPELTAEFIKRFGVEDGSVEGLRAEVRKNMERELKSAIRNRVKSQAIEGLVKANDIDVPAALIDSEIDVLRRQAAQRFGGNEKQALELPRELFEEQAKRRVVVGLLLGEVIRTNELKADEERVKGLIEEMASAYEDPKEVIEFYSKNKELMDNMRNVALEEQAVEAVLAKAKVTEKETTFNELMNQQA”, the “soluble on expression in E. coli” value was “soluble”. For “MQEKPQEPKVVGVEILEKSGLDIKKLVDKLVKATAAEFTTYYYYTILRMHLTGMEGEGLKEIAEDARLEDRLHFELMTQRIYELGGGLPRDIRQLADISACSDAYLPENWKDPKEILKVLLEAEQCAIRTWKEVCDMTYGKDPRTYDLAQRILQEEIEHEAWFLELLYGRPSGHFRRSSPGNAPYSKK” the value was “soluble”.

For “MGKEYHVAVVGATGAVGTRMIELLAETSLPIASVRLLASKRSAGQEIQFKGQPLIVEELVPESFEGIDLALFSAGGSISEKFAPEAVKRGAVVVDNTSHFRMAKDVPLVVPEVNPEALKNHQGIIANPNCSTIQMMVALEPIRQAFGLERIIVSTYQAVSGAGIRAINELKEQAEDFLEGKPVSEWSAEILPAGSDEKHYPIAFNALPQIDVFSEAGYTYEEWKMMNETKKIMGDNKLKVVATCVRIPVISGHSESVYIEVKQADASVSAIQELMAQAPGVILQDEPSEQLYPQALNSVNQKETFVGRIRQDVDVKNGFHLWIVSDNLLKGAAWNSVQIAETLHEMNLLRVPEND”, the “soluble on expression in E. coli” value is recorded as “not soluble”.

As to “MAEAIFSAIVGDVIGRVISLVVSNFNGDHSTEVKLQRICRMLIKIHSVVEEAKGRQITNHGTLEWLSELIDGAYQGRYLLDTIGCGEPDLDDKNRDEVDPKPFSLSKFNPAKRVRVAAFTVRNILSRHDIGVDEIDRVVESLQSMCGDLKEFMMLLQACQPIHRPLATNIFIEGQMFGRHVKKEMIINFLLHEDDLPRGKLGVLPILGDIGVGKTTLVQHACDDARVRSHFTTILLFNFSHTYKMEMCEPKPVLRPKHVIGDVGNSDDPLHELEQSFFNKRFLIVFEDVDIHKKNMLEELLKSLSCGKQGSKIIVTTSNKHVTTIGTVQPIKLKFLPCPEYWFFFKAHAFAGTDVQENPRLVAAGKSIAAKLNGSFFGAKIIGAILKENPDPKFWCTVLQRDIGGLSLLGDGLGYIADLVEILLPSRLSVKEVFVSKNSLSSETELARLQGLCLPCPSSAPLATHSSELSLAKATSYERVLLCKAVLPFYSLYYTAKCAVDSENCYSKFSVV”, the “soluble on expression in E. coli” value is given as “soluble”. With “GQSLPSVSKEIRELSNRTEQQTSLSDRKESEAFALETVRMISDRTLYLFRLAEGRSWEADVRGRSWASRVLPIVHRLKHGGIPWKQYLSSDSLCMEARLYGKYDSVTGAYRRGVVSFRSDIPQRNKVDDLTALALLGENVYAEEFDFGNRQIFPNPIRREAEAFYTYRLDSLYEKDGITYRRIAFRGLSGLNHGTVTIDATHGQLAILEMRVMMKGVITESYRVELGEVEPGLFLPIGLSVVIDRNRLWASLHNGYSASISYPGEQLDKTVLPVYTPTDSSRYRLPDELPVAPVWAVRSSFGREDSSTYWKNVVVGRDHTLHQHVPWHRALAWGHKYRIGERWRLGNEGLVWALFYYNYADHLWLGQSLTAIYDMAPGIRWEIKPGLYYVTKRRKAVWTLDSKLYYSPPQRGLLQLSAGHRSFDLYSTRERIDQLTDLMMELLNGQGPTTRYDDKFVRLTNSIDLLPKLNVETSVMLAERNPLPHGET” the entry was “not soluble”. For “MKPSMEKVLLQIALDLSSNLSSDLHYQRLINSIHQVFPCDASALFILDNDHCLKPVAVKGLSQAVLGRCFPPQVHPRLEAILQSKHPVRFESNSDLPDPFDGLLLVDENINIEVHDCLGCSLYVDDTLVGVLTLDALEVGAFKKIDDITIETFAALAAATLHNKALIKTLQDSNQQQKSINQTLI” the value was “not soluble”; for “PKNKAKKNPVRFYKNNFFMLKDKVNNIYVYVYEHKKNDNYNDLYLPRDNVFPYLGRVYINNDNGFIINDVYFSSERIGVKNYYDKDNPILINKHSSEGNRSYGYEPETFAEIKFKTKLDNISKSQIEYIIEFKPYDSIVDYVGDNIKKTLREPVKIEGTFEIIKEDEAEIIRLHNADIFGLYNVESILFSSERIFSGNVFNFDYLFINGKEKINSSINGVKEFSDEFLKDKINENKNIVESYVKESKQRHWKSLMDESILNYIDNYADYYNELKEFKSFNILYYDDKTISLYKRVSKLEDLKLAEIDNMFMTFELESQKLISPYIKDFVNDSEALLKKYNAPSDFYSNIDSLIFGITDSFIIIMNEKGCGKIFIDYKNIKEYINKDHYLAYLFN”, “not soluble”. With “GQLNVEHRQFLSQGLQGQSKGQSSVVVQPELYWDFQSGESSFTFTPFFRVDSLDDERTHCDIREALFLTYWDDYELRVGISKVFWGVTESAHLVDVVNQTDAVEAVDGEDKLGQPMVHFTAIKDWGAFHAMVLPYFRERTFAGQDGRLRTEPVISDNAIYESSREEKHIDVAFRYSKMLGDWDIGLSYLYGTNRDPYFRFEQGELKPYYALMSHFGIDVQGIVGDWLWKLESVYRDSYDHHVGVVTGFE” the entry was “not soluble”. Regarding “MGSSLSNLNDGTNGLAMGPGLGDIPESCVACVFMYLTPPEICNLAGLNRSFRGAASSDSVWEKKLPENYQDLLDLLPPERYHSLSKKDIFAVLSRPIPFDDDNKEVWIDRVTGRVCMAISARGMSITGIEDRRYWNWIPTEESRFHVVAYLQQIWWFEVDGTVRFHLPPGVYSLSFRIHLGRFTKRLGRRVCHFELTHGWDLKPVRFSLSTSDGQEASCEYYLDDVERNEALGKHKRGYWIEYRVGEFIVNGSEPSTEIQWSMKQIDCTHSKGGLCVDSVFINPIGDVKEHKRKAVLKEA”, the “soluble on expression in E. coli” value was “soluble”.

For the sequence “AQAALKDGTYSVDYTVLQGDSDSVSMANDYFDKPATVTVNGGKSTVSLQVNHSKWITGLWVEGNAVSVTSKNTASDTRKVSFPVSTLSSPVNAKIKVDIDDDGLNYHHEYQIQLRFDEGAVKSSGAAV”, the “soluble on expression in E. coli” value is “not soluble”. As to “MYIPKYFKVTNAEEIWNFVQENSFGTVVTTEQGKPIATHLPLGFNKKDDHYYITGHFAYGNPQWRTFEACEDVLVMFQGPHAYISSSWYSRENVPTWNYQAVHMYGKASMLEKDELAEELTIMLEQKTPTQAFSVLWDKLSPKLLESELKGIVGFKIKVEDIQAAYKLSQNRNETDYMNVIEQLQNEENPNAKQMAELMEDKLKKQI”, the “soluble on expression in E. coli” value was “not soluble”. With “MVSLRTSNRGIVMIDAVVTWVDGADPAHHAKRLRHQGEAGVHQAATAPTRFAHSGEIRFCVLSLLRFCPFVERIHIVTDDQHPAVLDPILDDPHWRDRIAVVDHRAIYGEHADLLPVFSSRSIETMIHRIPGLAPRFIYLNDDIFVGRPLDESHFFDGDRAVLRGRMQPFPNPLVTRLKRWLKRERPGYKTAQQAAARLTGRTSDYFLTEHQPHPMHRDRLASFYAGDPQALRRQAGHRFRSADQVSPIGLANHLEIEARAVIAPPLDVGYIRPGRPTGTALARTMERLCANGYASFCVQSLDAMSEADRRCVLEGLERHYALEHHHHHH” the entry was “soluble”; with “MLSLATFFITMTTHRKPSQEQGFLNGQFLLAMPGMSDERFARSVVYICAHSDEGAMGFIINQLQPVQFPDLLRQIGVIGEEDLIILPDRAQHMVVRNGGPVDRTRGFVLHSDDYMVDSTMPVSDDVCLTATVDILRAIYGGGGPERALMALGYSGWAPGQLEMEVAENGWLTCDAPLDMLFDSDIEGKYSRLMLHMGIDMSRLVSDAGHAAADPLEHHHHHH”, “not soluble”. Take “MGSDKIHHHHHHLSVRATISDSKSDFHKEFPYVIPAIYRKLADELLVELHLLSHQKNFKKDSIFSTGLKEVFSKFTSGYKPSEHATKLFDAICNCNGFNPTEINNSSEQLVSNAKSFTKEDLNSFLSKTNNDNKGYDYYSRINAIGIYKLVSEMPLFKEVKEEDLNKEINDISKSLGYQYSRVEKDISMYKSNIEKMKQALEIIALNLKTK”: the “soluble on expression in E. coli” value is given as “not soluble”.
